Measurements: PMC3696110, “Hsp70 Oligomerization Is Mediated by an Interaction between the Interdomain Linker and the Substrate-Binding Domain” (PLoS ONE, 2013)
Values joined by “and” are separate entries in the source; they are usually repeats but may differ in a detail not shown here. Identical values can stand only once. Like-named read-outs stand apart in the source and are kept apart here.

How the values were obtained:
[1] = cited from earlier work; for Protein in oligomeric state: ref [30]
From the text: It has been shown, for example, that up ...

peptide substrates = tested on: peptide substrates; set-up: method as in PMID 10876246; conditions: two different peptide substrates; ref [3]; cited from earlier work
[2] = nESI-MS relative populations of oligomeric forms; assay type: physicochemical, human; conditions: 6-15 µM protein, 150 mM ammonium acetate, pH 7.4, estimated error 5% (SD of 3-4 independent experiments)
Description: Prior to MS analysis, samples were buffer exchanged into 150 mM ammonium acetate, pH 7.4, using Micro Bio-spin 6 columns (Bio-Rad, Digilab Division, Cambridge, MA, USA). For all the experiments protein concentrations ranging from 6 to 18 µM were used. In the case of the substrate binding experiments, proteins were analyzed in the presence of a 1: 1 molar ratio of the NR peptide; this substrate concentration, lower than in the SEC experiments, was chosen to ensure adequate resolution of the various charge state series, which is critical for unambiguous assignment of substrate-bound states. Due to suppression effects during nESI ionization, a relatively limited set of molar ratios could be investigated by in this way.
nESI-MS spectra were obtained according to a previously published protocol on an orthogonal time-of-flight mass spectrometer with a Z-spray source (LCT, Waters, Manchester, UK) in positive ion mode using the following parameters: capillary voltage, 1500 V; sample cone voltage, 120 V (unless otherwise specified); extraction cone voltage, 1V; and ion transfer stage pressure, 8.8 mbar. Spectra were calibrated externally using a 33 mg/ml solution of cesium iodide. Data were acquired and processed with MassLynx software (Waters, Manchester, UK), and are shown with minimal smoothing and without background subtraction. The relative abundances of the different oligomeric states were estimated from the intensities of the most abundant charge states for each construct and are expressed as a percentage of the total intensity.

[3] = Analytical SEC relative populations of oligomeric forms; assay type: physicochemical, human; conditions: Superdex 75, 4 °C; for Dimer population / Monomer population / Total oligomer population: 50 mM Tris pH 7.4, 150 mM KCl
Description: Analytical SEC was performed at 4 °C using a Superdex 75 10/300 GL column (GE Healthcare LifeSciences, Little Chalfont, U.K.), which had previously been calibrated using a mixture of standard proteins (Gel Filtration LMW Calibration Kit; GE Healthcare LifeSciences, Little Chalfont, U.K.). Typically, samples of the various constructs contained 70 µM of protein in 50 mM Tris buffer at pH 7.4, with 150 mM KCl, 5 mM MgCl2 and were incubated for 15 min (unless otherwise specified) at room temperature before being loaded onto the column for analysis. To evaluate the reversibility of the oligomerization process, the different elution peaks obtained for each protein variant were subsequently analyzed after concentrating the different fractions using AmiconUltra-0.5, Ultracel-3 Membrane, 3 kDa (Millipore, Bedford, MA, USA). A similar analysis was also performed at 6 µM concentration for all the protein variants to allow for a direct comparison between the results obtained by SEC and MS experiments.
The influence of substrate binding on the oligomerization properties of all the variants was examined by using the well-characterized Hsp70 substrate, the NR peptide (NRLLLTG, Genemed Synthesis Inc., San Antonio, TX, USA). A 14-fold excess of the peptide was added in each case to a fresh protein sample, incubated for 1 h at room temperature, unless otherwise specified, and then loaded onto the Superdex 75 10/300 GL column for analysis. The relative quantities of the different protein species were estimated by analysing the chromatographic profile using a Gaussian function for each elution peak (OriginPro 8, Originlab, Northampton, MA, USA) and measuring the relative area under each peak.

[4] = Secondary structure content from far-UV CD; assay type: physicochemical, human; conditions: K2D software; 20 µM protein, 7 mM Tris pH 7.4, 170 mM KCl, 5 mM MgCl2; 25 °C
Description: Far-UV CD spectra for all protein variants were recorded using a Jasco J-810 spectropolarimeter equipped with a Peltier holder, using a 0.1 cm path length cuvette. Typically, samples contained 20 µM protein in 7 mM Tris buffer at pH 7.4, containing 170 mM KCl and 5 mM MgCl2. The far-UV CD spectra of all the variants in their native, thermally denatured and refolded states were recorded from 198 to 250 nm, and the spectrum of the buffer was systematically subtracted from the spectra of all protein samples. The secondary structure content was estimated from the far-UV CD spectrum for each protein variant using K2D software.

[5] = Thermal denaturation monitored by far-UV CD; assay type: physicochemical, human
Description: Protein structural stability was analyzed by monitoring the CD signal at 222 nm upon thermal denaturation. Thermal runs were performed from 5 to 90 °C at a rate of 1 °C. min^-1. Data points were acquired every 0.1 °C with a response time of 2 s and a bandwidth of […]. After thermal denaturation, each protein sample was cooled to the starting temperature, and a second denaturation curve recorded in order to analyse the degree of reversibility of the denaturation process. Analysis of the thermal unfolding curves was performed assuming a three-state unfolding model.

∆LSBD641 = assay: Fluorescence competition assay of dansylated and non-dansylated NR peptide; assay type: binding, human
Description: Fluorescence competition assay. Samples containing 50 μM ∆LSBD641 and 2 μM dansylated-NR peptide (D-NR) in Tris 50 mM, pH 7.4, 150 mM KCl, 5 mM MgCl2 were incubated in the presence of different concentrations of non-dansylated NR peptide (ND-NR; 0, 50 and 200 μM) for 1h at room temperature and the dansyl fluorescence emission spectrum of each sample was recorded from 400 to 630 nm after excitation at 330 nm. The intensity at the maximum emission wavelength of three different samples for which ten spectra were recorded was averaged, and the fraction of bound D-NR peptide was then determined experimentally from the reduction in the fluorescence signal in relation to the reference sample without ND-NR peptide for which the fraction of bound D-NR peptide is known (83% of the D-NR peptide is bound in this conditions according to the affinity measured by fluorescence titration; see Figure […]
The fraction of bound D-NR peptide was theoretically calculated for each sample according to a competitive model where the two ligands bind to the same substrate-binding pocket in the chaperone and assuming different values for the affinity of the ND-NR peptide for ∆LSBD641 […]
fluorescence titration was 8 ± 2 μM).
From the mass balance of the total protein concentration (PT) in a two-ligands competitive model and substituting the concentration of each complex (PL1 and PL2, corresponding to the complex with D-NR and ND-NR peptide, respectively) by the expression obtained from the definition of the different dissociation constants, a third-order polynomial expression (A·P3 + B·P2 + C·P + D = 0) of the free concentration of protein (P) is obtained, where the coefficients of the different terms are:
(also on this page, place not known: dansylated - m M excitati on -NR sig nal ND -NR D -NR D -NR D -NR substrate -binding ND -NR K d D -NR ( PT) two -ligands substitut ing ( PL1 D -NR ND -NR third -order (A· P3 D ( P) Tdd TdTddTdTddTTTdd PKKD PKPkKLKLKKCPLLKKBA 21 211221212121 ;;;1 −= −−++=−+++==) […]
(1 picture or pasted object on this page, not shown here)

[6] = 70 µM protein, 5 mM MgCl2, 15 min at room temperature, estimated error 3.5% (SD of 3-4 independent experiments)
[7] = 6-15 µM protein, 5 mM MgCl2, estimated error 3.5% (SD of 3-4 independent experiments)

Substance | Monomer population [2] [%] | Trimer population [2] [%] | Dimer population [3, 6] [%] | Monomer population [3, 6] [%] | Dimer population [3, 7] [%] | Monomer population [3, 7] [%] | Total oligomer population [3, 7] [%] | Random-coil content estimated from far-UV CD [4] [%] | α-helix content estimated from far-UV CD [4] [%] | β-sheet content estimated from far-UV CD [4] [%] | other results
BiP/Grp78: endoplasmic reticulum resident Hsp70 chaperone | – | – | – | – | – | – | – | – | – | – | Molecules existing as oligomers ([1]; in mammalian cells, ref [29]): 40-50%; Molecules existing as oligomers ([1]; in vitro, ca. 5 µM protein, ref [28]): 40-50%
DnaK 2-538: DnaK mutant protein lacking the C-terminal 100 residues, i.e. helices C-E and part of helix B | – | – | – | – | – | – | – | – | – | – | Association rate constants vs wild type DnaK (peptide substrates): unaffected; Dissociation rate constants vs wild type DnaK (peptide substrates): considerable increase
DnaK: bacterial Hsp70 homologue | – | – | – | – | – | – | – | – | – | – | Protein in oligomeric state ([1]; 0.5 mg/ml (ca. 7 µM)): approximately 20%; Protein in oligomeric state ([1]; 16 mg/ml (ca. 230 µM)): 70%
FL-Hsp70: full-length human Hsp70 1A, GenBank ID NP005336, recombinant N-hexa-His-tagged | 98 | 0 | 7 | 93 | 1 | 99 | 1 | 32 | 45 | 23 | Total oligomer population [2]: 2%; Oligomeric species ([3]; 220 µM protein, 50 mM Tris pH 7.4): 35%
SBD556: truncated human Hsp70 (384-556), lacks helices C, D and E and C-terminal disordered region; L542Y mutation | 82 | 2 | 7 | 93 | 3 | 97 | 3 | 54 | 21 | 25 | Dimer population [2]: 16%; Total oligomer population [3, 6]: 7%; ∆Hm, 1st transition ([5]; CD 222 nm, 20 µM protein, 7 mM Tris pH 7.4, 170 mM KCl, 5 mM MgCl2, three-state fit (C-term two-state), SE of fit): 63.9 ± 1.9 kcal/mol; ∆Hm, 2nd transition ([5]; CD 222 nm, 20 µM protein, 7 mM Tris pH 7.4, 170 mM KCl, 5 mM MgCl2, three-state fit, SE of fit): 85.4 ± 2.6 kcal/mol; Tm, 1st transition ([5]; CD 222 nm, 5 to 90 °C at 1 °C/min, 20 µM protein, 7 mM Tris pH 7.4, 170 mM KCl, 5 mM MgCl2, three-state fit (C-term two-state), SE of fit): 46.8 ± 0.1 °C; Tm, 2nd transition ([5]; CD 222 nm, 5 to 90 °C at 1 °C/min, 20 µM protein, 7 mM Tris pH 7.4, 170 mM KCl, 5 mM MgCl2, three-state fit, SE of fit): 64.5 ± 0.1 °C and 64.5 ± 0.2 °C; Reversibility of thermal unfolding ([5]; far-UV CD, second denaturation curve after cooling): fully reversible
dansylated NR peptide: NR peptide N-terminally labeled with dansyl fluorophore | – | – | – | – | – | – | – | – | – | – | Fraction of bound dansylated NR peptide, ∆LSBD641:ND-NR 1:1, experimentally determined (∆LSBD641; 50 μM ∆LSBD641, 2 μM D-NR, 50 μM ND-NR, Tris 50 mM pH 7.4, 150 mM KCl, 5 mM MgCl2, 1 h room temperature, average of three samples): 0.62 ± 0.1; Fraction of bound dansylated NR peptide, ∆LSBD641:ND-NR 1:4, experimentally determined (∆LSBD641; 50 μM ∆LSBD641, 2 μM D-NR, 200 μM ND-NR, Tris 50 mM pH 7.4, 150 mM KCl, 5 mM MgCl2, 1 h room temperature, average of three samples): 0.35 ± 0.1; D-NR peptide bound (∆LSBD641; 50 μM ∆LSBD641, 2 μM D-NR, no ND-NR, according to affinity from fluorescence titration): 83%; Affinity of dansylated vs non-dansylated NR peptide (∆LSBD641; fluorescence competition assay): essentially the same affinity
